# Data reported in publication PMC8216552.
# “And” between values parts separate entries of the source, which are not always exact repeats. Equal values may be shown once.
# Columns and labels:
# [1] = biological target: stabilized soluble CON-S envelope trimer (stabilized CON-S SOSIP gp140) (HIV-1 (group M consensus)); experiment: negative stain electron microscopy; chimeric CON-S DS.SOSIP-664 trimers with a 10-fold molar excess of Fab, 1 h at room temperature; uranyl formate stain; 2D classes and 3D reconstruction (RELION)
# [2] = biological target: stabilized soluble CON-S envelope trimer (stabilized CON-S SOSIP gp140) (HIV-1 (group M consensus))
# [3] = substrate: CON-S gp120 with the N362 glycosylation site (HIV-1 (group M consensus))
# [4] = substrate: CON-S gp120 (HIV-1 (group M consensus)); experiment: ELISA; direct ELISA: HIV-1 envelope protein (2 ug/mL) in sodium bicarbonate buffer coated on 384-well plates overnight at 4 C; serially diluted antibodies 90 min; detected with HRP anti-IgG Fc; titres as area under the log-transformed curve (log AUC)
binder,measurement,setting,value
"DH845.1 Fab (Fab, V domains shown) VH: QVQLQESGPGLVKPSETLSLTCAVSGGSMSSVYQGWGWIRQPPGKGLEWIATTYTSTGNIYYNPSLKGRGTVSRDTSKNQFSLKLSAVTAADTAVYYCARLNLGDSGDYTGVSEYFDFWGQGALVTVSS VL: AIQLTQSPSALSASVGDRVTISCRASQNIYSNLAWYQQKPGKAPKLLIFGASRLQSGIPSRFSGSGSGTDFTLTISSLQPEDSATYYCQQVYSNFYSFGQGTKVEIK",stoichiometry N (Fabs per trimer),[1],2 and 3
"DH840.1 IgG (antibody, V domains shown) VH: QVQLKESGPGLVRPSETLSLTCAVSGTSINSAYAWGWVRLPPGKGLEWIMTVYTSTGNTYSDPSLKSRVTISKDTSKNQFSLRLSSVTVEDTAVYFCARADGSDSGWPHFDNWGQGLLVTVSS VL: EIMVTQSPATLSVSPGERATLSCRASQSVRNRIAWYQQKPGQSPRLLIYDASIRAPGIPDRLSGSGSGTEFTLTINSLEPSDVAVYFCQLEANWLTFGGGTKVEIK",maximum percent neutralization of wild-type CON-S pseudovirus (TZM-bl cells),[2],83%
same,maximum percent neutralization of CON-S pseudovirus with the N362 glycan (TZM-bl cells),[3],45%
"DH840.1 W100bA (antibody, V domains shown) VH: QVQLKESGPGLVRPSETLSLTCAVSGTSINSAYAWGWVRLPPGKGLEWIMTVYTSTGNTYSDPSLKSRVTISKDTSKNQFSLRLSSVTVEDTAVYFCARADGSDSGAPHFDNWGQGLLVTVSS VL: EIMVTQSPATLSVSPGERATLSCRASQSVRNRIAWYQQKPGQSPRLLIYDASIRAPGIPDRLSGSGSGTEFTLTINSLEPSDVAVYFCQLEANWLTFGGGTKVEIK",percent reduction of binding against wild-type DH840.1,[4],64%
"DH840.1 Fab (Fab, V domains shown) VH: QVQLKESGPGLVRPSETLSLTCAVSGTSINSAYAWGWVRLPPGKGLEWIMTVYTSTGNTYSDPSLKSRVTISKDTSKNQFSLRLSSVTVEDTAVYFCARADGSDSGWPHFDNWGQGLLVTVSS VL: EIMVTQSPATLSVSPGERATLSCRASQSVRNRIAWYQQKPGQSPRLLIYDASIRAPGIPDRLSGSGSGTEFTLTINSLEPSDVAVYFCQLEANWLTFGGGTKVEIK",percent of trimers bound by Fab,[1],33%
same,stoichiometry N (Fab per trimer),[1],1
"DH842 Fab (Fab, V domains shown) VH: QVQLQESGPGLMQPAETLSLTCAVSRDSIGSGYYAWGWFRQVPGKGLEWIVTIYTSTGNIYDESPLKSRVTISRDTSKNQFSLKLTSVTPADTAVYFCAREGCNTVFCSAGWFDVWGPGLLVTVSS VL: QAVLTQPTALSASPGASARLTCTLRSGISVADYRIFWYQQRPGSPPRYLLNYRTDSDHHQGSGVPSRFSGSKDDSANTGFLVISGLQSEDEADYHCMIRHNTAYIFGGGTRLTLL",percent of analyzed Envs with one Fab bound,[1],34%
same,percent of analyzed Envs with two Fabs bound,[1],53%
"DH846.1 Fab (Fab, V domains shown) VH: QLQLQESGPGLVKPSETLSLTCDVSGVSISSNYGWGWIRQPPGKGLDWIVTIYGGTGNTYYAPSLEGRVAISKDASKNQFSLRLNSVTAADTAVYYCARKITYSSGWYYFDYWGQGVLVAVSS VL: EIVMTQSPATLSLSPGERATLSCRASQSVSSRLAWYQQKPGQAPRLLIYDASNRATGIPDRFSGSGSGTEFTLTISGLEPEDVAVYFCQEDHNWSTFGQGTKVEIK",stoichiometry N (Fabs per trimer),[1],2 and 3
